{
  "source": "patent US20050191706A1",
  "key": {"Lβ11H, Dβ57A": {"target": "Lβ11H, Dβ57A", "test": "flow", "details": "chains peptide; modification not given"}, "Lβ26F": {"target": "Lβ26F", "test": "flow", "details": "chains peptide; modification not given"}},
  "data": [
    {"binder": "PKYVKQNTLKLAT", "note": "[bio-HA308-316]", "values": [
      {"measurement": "Kd", "setting": "Lβ11H, Dβ57A", "result": 8.56, "unit": "µM"},
      {"measurement": "Kd", "setting": "Lβ26F", "result": 3.72, "unit": "µM"}
    ]}
  ]
}
